In patent publication US20090149389A1:

Target: MAPKAP kinase II (MK2) (UniProt P49137)
Assay: cell-based or functional assay

Sequence of MAPKAP kinase II (MK2) (P49137 whole entry): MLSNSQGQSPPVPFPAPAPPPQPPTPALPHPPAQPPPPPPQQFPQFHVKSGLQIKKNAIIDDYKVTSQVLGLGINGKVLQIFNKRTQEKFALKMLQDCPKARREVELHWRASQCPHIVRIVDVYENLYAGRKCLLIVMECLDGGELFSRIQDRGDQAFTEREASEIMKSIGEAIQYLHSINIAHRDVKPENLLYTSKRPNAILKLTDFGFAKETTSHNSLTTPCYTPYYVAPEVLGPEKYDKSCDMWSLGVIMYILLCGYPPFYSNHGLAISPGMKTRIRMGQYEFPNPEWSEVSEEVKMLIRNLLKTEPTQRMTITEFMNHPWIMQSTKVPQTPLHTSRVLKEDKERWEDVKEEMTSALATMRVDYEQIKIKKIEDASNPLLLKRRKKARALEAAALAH

% of … [SEQ ID NO: 124] Reaction Velocity at an Inhibitor Concentration of 100 µM: 276%
Substance: KALNRdQLGVAA (peptide)
